From paper PMC2275616 come the findings set out here.

“And” between values parts separate entries of the source, which are not always exact repeats. Equal values may be shown once.

The assay concerns the target phosphocellulose-purified tubulin (bovine (endogenous in bovine brain)) (UniProt Q6B856). Description: native gel or EMSA. (In general: In EMSA bound probe runs differently from free probe, usually more slowly.)

Broadly, the stoichiometry N is the number of molecules, sites or subunits per partner or assembly. For the substance “phosphocellulose-purified tubulin (from UniProt Q6B856 1-445) (complex)”, the stoichiometry N is 4 and 6 and 8.
